Measurements reported in patent US20170023592A1.

How the values were obtained:
human BNP(1-32) (human) [1] = experiment: sandwich ELISA, L21016 capture, mAb detection; BNP(1-32) 20 pg/ml
human BNP(1-32) (human) [2] = experiment: sandwich ELISA, L21016 capture, mAb detection; BNP(1-32) 39 pg/ml
human BNP(1-32) (human) [3] = experiment: sandwich ELISA, L21016 capture, mAb detection; BNP(1-32) 78 pg/ml
human BNP(1-32) (human) [4] = experiment: sandwich ELISA, L21016 capture, mAb detection; BNP(1-32) 625 pg/ml
human BNP(1-32) (human) [5] = experiment: sandwich ELISA, L21016 capture, mAb detection; BNP(1-32) 1,250 pg/ml
human BNP(1-32) (human) [6] = experiment: sandwich ELISA, L21016 capture, mAb detection; BNP(1-32) 2,500 pg/ml
human BNP(1-32) (human) [7] = experiment: sandwich ELISA, L21016 capture, mAb detection; BNP(1-32) 312.5 pg/ml
human BNP(1-32) (human) [8] = experiment: sandwich ELISA, L21016 capture, mAb detection; BNP(1-32) 5,000 pg/ml
human BNP(1-32) (human) [9] = experiment: sandwich ELISA, L21016 capture, mAb detection; BNP(1-32) 10,000 pg/ml
human BNP(1-32) (human) [10] = experiment: sandwich ELISA, L21016 capture, mAb detection; BNP(1-32) 156.25 pg/ml
human BNP(1-32) (human) [11] = experiment: sandwich ELISA, L21016 capture, mAb detection; BNP(1-32) 0 pg/ml (blank)
[12] = target: human proBNP(1-108), recombinant, produced in E. coli (non-glycosylated) (human) (UniProt P16860); experiment: sandwich ELISA, hinge 76 capture, peroxidase-mAb detection; proBNP(1-108) 20 pg/ml
[13] = target: human proBNP(1-108), recombinant, produced in E. coli (non-glycosylated) (human) (UniProt P16860); experiment: sandwich ELISA, hinge 76 capture, peroxidase-mAb detection; proBNP(1-108) 39 pg/ml
[14] = target: human proBNP(1-108), recombinant, produced in E. coli (non-glycosylated) (human) (UniProt P16860); experiment: sandwich ELISA, hinge 76 capture, peroxidase-mAb detection; proBNP(1-108) 78 pg/ml
[15] = target: human proBNP(1-108), recombinant, produced in E. coli (non-glycosylated) (human) (UniProt P16860); experiment: sandwich ELISA, hinge 76 capture, peroxidase-mAb detection; proBNP(1-108) 625 pg/ml
[16] = target: human proBNP(1-108), recombinant, produced in E. coli (non-glycosylated) (human) (UniProt P16860); experiment: sandwich ELISA, hinge 76 capture, peroxidase-mAb detection; proBNP(1-108) 1,250 pg/ml
[17] = target: human proBNP(1-108), recombinant, produced in E. coli (non-glycosylated) (human) (UniProt P16860); experiment: sandwich ELISA, hinge 76 capture, peroxidase-mAb detection; proBNP(1-108) 2,500 pg/ml
[18] = target: human proBNP(1-108), recombinant, produced in E. coli (non-glycosylated) (human) (UniProt P16860); experiment: sandwich ELISA, hinge 76 capture, peroxidase-mAb detection; proBNP(1-108) 312.5 pg/ml
[19] = target: human proBNP(1-108), recombinant, produced in E. coli (non-glycosylated) (human) (UniProt P16860); experiment: sandwich ELISA, hinge 76 capture, peroxidase-mAb detection; proBNP(1-108) 5,000 pg/ml
[20] = target: human proBNP(1-108), recombinant, produced in E. coli (non-glycosylated) (human) (UniProt P16860); experiment: sandwich ELISA, hinge 76 capture, peroxidase-mAb detection; proBNP(1-108) 10,000 pg/ml
[21] = target: human proBNP(1-108), recombinant, produced in E. coli (non-glycosylated) (human) (UniProt P16860); experiment: sandwich ELISA, hinge 76 capture, peroxidase-mAb detection; proBNP(1-108) 156.25 pg/ml
[22] = target: human proBNP(1-108), recombinant, produced in E. coli (non-glycosylated) (human) (UniProt P16860); experiment: sandwich ELISA, hinge 76 capture, peroxidase-mAb detection; proBNP(1-108) 0 pg/ml (blank)
human BNP(1-32) (human) [23] = experiment: sandwich ELISA, L21016 capture, BNP(1-32) 5 ng/ml; detection by 50B7 0.5 ug/ml alone (no 20G7)

human BNP(1-32) (human), sequence (peptide, as listed by the source): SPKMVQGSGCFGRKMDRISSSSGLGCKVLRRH
human proBNP(1-108), recombinant, produced in E. coli (non-glycosylated) (human), sequence (P16860 27-134): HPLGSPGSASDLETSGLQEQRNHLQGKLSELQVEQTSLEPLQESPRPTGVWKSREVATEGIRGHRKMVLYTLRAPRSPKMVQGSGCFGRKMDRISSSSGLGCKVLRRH

optical density (OD) at 490 nm (human BNP(1-32) (human) [1]) [OD] | optical density (OD) at 490 nm (human BNP(1-32) (human) [2]) [OD] | optical density (OD) at 490 nm (human BNP(1-32) (human) [3]) [OD] | optical density (OD) at 490 nm (human BNP(1-32) (human) [4]) [OD] | optical density (OD) at 490 nm (human BNP(1-32) (human) [5]) [OD] | optical density (OD) at 490 nm (human BNP(1-32) (human) [6]) [OD] | optical density (OD) at 490 nm (human BNP(1-32) (human) [7]) [OD] | optical density (OD) at 490 nm (human BNP(1-32) (human) [8]) [OD] | optical density (OD) at 490 nm (human BNP(1-32) (human) [9]) [OD] | optical density (OD) at 490 nm (human BNP(1-32) (human) [10]) [OD] | optical density (OD) at 490 nm (human BNP(1-32) (human) [11]) [OD] | optical density (OD) [12] [OD] | optical density (OD) [13] [OD] | optical density (OD) [14] [OD] | optical density (OD) [15] [OD] | optical density (OD) [16] [OD] | optical density (OD) [17] [OD] | optical density (OD) [18] [OD] | optical density (OD) [19] [OD] | optical density (OD) [20] [OD] | also measured | Substance
0.068 | 0.055 | 0.052 | 0.059 | 0.056 | 0.067 | 0.063 | 0.068 | 0.077 | 0.071 | 0.071 | 0.052 | 0.056 | 0.056 | 0.07 | 0.068 | 0.069 | 0.035 | 0.117 | 0.22 | optical density (OD) [21]: 0.055 OD; optical density (OD) [22]: 0.044 OD | 24C5 monoclonal antibody (HyTest, Turku, Finland)
0.034 | 0.032 | 0.055 | 0.029 | 0.031 | 0.035 | 0.027 | 0.041 | 0.048 | 0.032 | 0.022 | 0.028 | 0.028 | 0.033 | 0.024 | 0.024 | 0.031 | 0.028 | 0.041 | 0.158 | optical density (OD) [21]: 0.027 OD; optical density (OD) [22]: 0.024 OD | 26E2 monoclonal antibody (HyTest, Turku, Finland)
– | – | – | – | – | – | – | – | – | – | – | – | – | – | – | – | – | – | – | – | Optical Density 490 nm (human BNP(1-32) (human) [23]): 1.3 OD | 50B7 monoclonal antibody (HyTest, Finland)
